Protein production data for 19 sequences are collected here from a protein production outcome set (Wang et al. 2014).

This data set can be described thus: label from the status in PepcDB records.

For the sequence “MSLHPNIQAVTDRIRKRSAPSRAAYLAGLDAALREGPFRSRLSCGNLAHGFAASEPGDKSRLRGAATPNLGIITAYNDMLSAHQPFEHYPQLIRETARTLGATAQVAGGVPAMCDGVTQGRAGMELSLFSRDNIAQATAIGLSHDMFDSVVYLGVCDKIVPGLLIGALAFGHLPAIFMPAGPMTPGIPNKQKAEVRERYAAGEATRAELLEAEASSYHSPGTCTFYGTANSNQVLLEAMGVQLPGASFVNPELPLRDALTREGTARALAISALGEDFRPFGRLIDERAIVNAVVALMATGGSTNHTIHWIAVARAAGIVLTWDDMDLISQTVPLLTRIYPNGEADVNRFQAAGGTAFVFRELMDAGYMHDDLPTVVEGGMRAYINEPRLQDGKVTYVPGTATTADDSVARPVGDAFESQGGLRLLRGNLGRSLIKLSAVKPQHRSIQAPAVVIDTPQVLNKLHAAGVLPHDFVVVLRYQGPRANGMPELHSMAPLLGLLQNQGRRVALVTDGRLSGASGKFPAAIHLTPEAARGGPIGRVREGDIVRLDGEAGTLEVLVSAEEWASREVAPNTSVAGNDLGRNLFAINRQVVGPADQGAISISCGPTHPDGALWSYDAEYELGADAAAAAAPHESKDA”, the protein production entry was “failed”. With “MSLIEIRKRTLIVETTYHENGPAPAQPLKLAASCAVIRNPYAGRYEPDLMPFMAELRSLGTLLATELVDTLGKDNIEVYSKAAIVGVDGEMEHGAVWHEAGGWAMRSVLGEPKAMVPAVKAVATAGYRMMVPVHYIHASYVRSHFNSIEIGIQDAPRPREILFALVMGTGARVHARLGGLTKEAVSVHDGQR”, the protein production entry is “not failed”. As for “MSLIERVRTDLYRIPLPTRLTDSTHGAMMDFELITVRIEDSDGATGLGYTYTVNHGGAAVATMVDKDLRGCLLGADAEQIEKIWQSMWWRLHYAGRGGHATSAISAVDIALWDLKGIRARTPLWKLFGGYDPVVPVYAGGIDLELPVADLKTQADRFLAGGFRAIKMKVGRPDLKEDVDRVSALREHLGDSFPLMVDANMKWTVDGAIRAARALAPFDLHWIEEPTIPDDLVGNARIVRESGHTIAGGENLHTLYDFHNAVRAGSLTLPEPDVSNIGGYTTFRKVAALAEANNMLLTSHGVHDLTVHALASVPHRTYMEAHGFGLHAYMAEPMAVTDGCVSAPDRPGHGVVLDFERLGRLAVGEGHHHHHH”, the entry is “not failed”; as for “MSLIFTAIVVFLFILAIFDLIVGVSNDAVNFLNSAIGAKAAPFKIIVGVAALGVFCGAAMNNGMMEIARHGIFRPEHYTFSELMVVFLSVVITDVVLMDMFNSLGMPTSTTVSLIFELLGGSFFMAMTKVGGTVGFQDLLNTEKALSVILGIFLSVGIAFFFGMVVQYLSRLLFTFNYRRNLRWLAGLFGGVAVTSIIYFMLIKGLKGVSFMTEESTAWIAANTGRLVLYCLVVSIILMQVLYWLRVNVFKVIVLLGTFALAMAFAGNDLVNFIGVPLAGYSSYLDFNANGNGQYDTYLMGALNEPASTPVYFLVAAGIVMVYALITSKKAHNVIKTSVDLARQEEGEEMFGSSGLARSIVRFSTTTANAVSRIIPRPVGRWIDSRFNQDELIMAKGAAFDLVRASVNLVLAGLLIAFGTSLRLPLSTTYVAFMVAMGTSLADRAWSRESAVFRITGVFSVIGGWFITAGAAFILCFLVTMVNHFGGYPAMAGMIILAIFLLVRSHIRFDKKKKSETKDTVFIDMMASHDKEEIWQLLAKHIRQKQLALLDFAENNYMQMTDGFINEDLKRLRRSINDQNAERQMLKVNRRKETLGIRRIEEAKSVVKNTWFHLGCNSCEQIVFCLKRIAEPCKEHVDNNFNPLPKVCVSEFLAAREKLILYIKEAKLIVSNETDEILDPMTYRGKDIKKELKQLRKTQLSRIQQGASSLKISLVYLNLLQESQQLVNILDDLIHATEKLFDPVARIGTDEEFFN”, “failed”; as for “MSLILESLVTTLDEQGRINLAPLGPIVLPPQSPGGLPQFLLRPYEGSTTCDNLLASGNAVIHVIDDALLIAKTAIGKVDASDLVVPIPGLEDTHVRLKRCHRWFAVRVTQRAGTPPRHELTARCLASGLVDPFFGFNRAKHAVIEAAVAATRLHLLPPEEIEEELERARIAIEKTGGEPEREALQLIRRHVRESSISEGHHHHHH”, “not failed”. As for “MSLINARLIAFEDQWVPALNAPLKQAILADSQDAQLAAAMTYSVLAGGKRLRPLLTVATMQSLGVTFVPERHWRPVMALELLHTYSLIHDDLPAMDNDALRRGEPTNHVKFGAGMATLAGDGLLTLAFQWLTATDLPATMQAALVQALATAAGPSGMVAGQAKDIQSEHVNLPLSQLRVLHKEKTGALLHYAVQAGLILGQAPEAQWPAYLQFADAFGLAFQIYDDILDVVSSPAEMGKATQKDADEAKNTYPGKLGLIGANQALIDTIHSGQAALQGLPTSTQRDDLAAFFSYFDTERVNEGHHHHHH”, the entry is “not failed”. As for “MSLIPKFRAWDTYEKEMLENVTPLFDDSNSMIAIITDFQIKGSPGTSEIEIGSYDTTFNWDEFPYVIMQSTGLKDKNGVEIFEGDILVYDAPKKYAHRRSMHEIAYADGRFFWEFLDLVFCQSNILYRDGYLVIGNIHENPELLEGNEGHHHHHH”, the entry is “not failed”; as for “MSLIPKVSVIVPIYNVEKYLDQCVQALLAQTLSDIEIILIDDESPDNCPKICDDYAAQYPNIKVIHKKNAGLGMACNSGLDVATGEYVAFCDSDDYVDSDMYMTMYNVAQKYTCDAVFTGLKRITMAGIPTGTVTHQKEFKLYKNKNEIHTLLKDLIASDPYAREERAIQVSAKVVLYRRNLIEKKHLRFVSERILPSEDLIFNVDVLANSNIVCVLPQTFYNYRTNPISISEGHHHHHH”, “not failed”. As for “MSLKEFKIGWFATILGTGGVAIASLPYFPVLSVVLTYLLTAIFVILTAVWLAKIIRYPRVVAAELGHFVMGNFYPLQPISAVILAILYRKLGIPLDLPLLAYGAGLILVLTVYLSYHFFANVKAEIHHIHGGWFIPPVSTILVTDALLQYSPNETFFVTSLIYFGIGLMLFLFISTILFLRLVNHELPVFELAPTNFILLAPIGILIVDFTLIAKHAEAIFSANLVPLALIASISLWGFGLWALAVNILLLLRYLRQEMPFFLGWWSYVFPTAAYTLSTIALSHFVPVFSYAATALYAFLIAAWAIIGVRTVGIAIRGA”, the protein production entry is listed as “failed”. As for “MSLKFFLKAYARIAAIAAAVVLVCVLLFNGINSVREQYWHEQAMTPVMRWLAAAPDPLSQYHWMAPMFGLHSGVAADFGLSQVALERLGYGQVVAQSTDSGYGYYVLGLGGEVLGIHLEQPYRDLARAISLMVRWHLDTSPAAQRADVAQQLAESLNLDIRLVQKTEDLPDQQALERLGDTGLAIFEHGDNRARALVRLSEGALVVVTLPPPFNPWGWPIILLLTAVVGGVLAVALFLALRFVESHLRKVESVAIRIARGEMGARVESEQGTLVSRLGTSFNGMAEHIQRLVQVQREMIHAVSHELRTPVARIRFGVQMIESGSTQEVLEKQLEGIDGDIQELDELIDEILTYARLEQGGPVFSLREGSVTDIVRQVVSEQRLIREGVDIECQIDEASERWAQADMEPRYIHRAIQNLVGNAARYAAGRVQVSCHLDEDNCRIDVEDDGPGIPEQDWEKVFTAFARLDDSRTRTSGGYGLGLSIVRRILYWHGGQAFVGRSDVLGGARFSLVWPRLKPADPDL”, the entry is “failed”; as for “MSLKIKHEHIRMAMNAWAHPDGEKVPAAEITRAYFELGMTFPELYDDSHPEALARNTQKIFRWVEKDTPDAVEKIQALLPAIEKSMPPLLVARMRSHSSAYFRELVETRERLVRDADDFVAVAIAGFNQMNRGGPAGNIVAVHEGHHHHHH”, “not failed”. Consider “MSLKIKNILLSGGSGKRLWPLSRSLYPKQFLKLFDHKSLFELSFKRNASLVDETLIVCNEKHYFLALEEIKNEIKNKSVGFLLESLSKNTANAIALSALMSDKEDLLIVTPSDHLIKDLQAYENAIKKAIDLAQKGFLVTFGVSIDKPNTEFGYIESPNGLDVKRFIEKPSLDKAIEFQKSGGFYFNSGMFVFQAGVFLDELKKHAPTILKGCERAFESLENAYFFEKKIARLSEKSMQDLEDMSIDIALMQQSHKIKMVELNAKWSDLGNFNALFEEAANEPKENVSLNQTPVFAKESEEGHHHHHH”, for which the protein production entry is given as “not failed”.

“MSLKKINTVLAAAFILFILWFGAEFILSPETTAPGFGLPSWPSGDGDGFLIIKGIRDVVLALVLGILLVTGHRRALGWALLVEALAAYGDMTAVLAHHGSVATALGVHCLTATLMVVNGLLIMRETRKVAAAPATPAPQPA”: the protein production entry is “failed”. As for “MSLKRRQTNIIGVYLADYGGSFYGELLEGIKKGLALFDYEMIVCSGKKSHLFIPEKMVDGAIILDWTFPTKEIEKFAERGHSIVVLDRTTEHRNIRQVLLDNRGGATQAIEQFVNVGSKKVLLLSGPEKGYDSQERLAVSTRELTRFGIPYEIIQGDFTEPSGYAAAKKILSQPQTEPVDVFAFNDEMAIGVYKYVAETNYQMGKDIRIIGFDNSELGAFVQPRLATIAYSKHRWGMVAAEKIIHLMRGEAAESEHIYTRFIEGESFPSEGHHHHHH”, the entry is “not failed”. With “MSLKSIEVVAAVIRLGEKYLCVQRGQTKFSYTSFRYEFPGGKVEEGESLQEALQREIMEEMDYVIEVGEKLLTVHHTYPDFEITMHAFLCHPVGQRYVLKEHIAAQWLSTREMAILDWAEADKPIVRKISEQEGHHHHHH”, the protein production result was “not failed”. “MSLKVPGALPLLFLAACSHLPAKTPLTAEKPAEKKESEQSRVPSQDLTPSMLFDFLLAETALQRGDTEIGLRTYLKLAKNTQDPRVAQRATEAALQARQPAFALEAAKIWTELDPESIPARQMMAALLVHFDRLDEARPHLEKLLAVAGDKIDDAFMQLNSLLVRSPNKNAIFELVKQLAQPYPDLPEAHFAESQAAWFAERFDIALEEMKKALALRPEWEMAAIYEGRILSRESNARAIEFFDDYLKRYPKANDTRITYARLLLAERDYSKAREQFQKLLTENPDNPDVAIAVGLLSLELQNYDVAESNFKRALELGYRDPGMVRFYLGGISEKKQQIPQALNWYRSVTEGTQFIPAQIKYAILLSRTGKTKEGLHHLQQLPVANDQQRAQVIIAEAQLLRESGAYKKAFQLLSSSLEKLPDSPELLYDRALAAEKIGKADIMEQDLRKLIELRPDHAHAYNALGYGIAEHSSKRLPEALELIEKAIKLSPIDPYIIDSLGWVHYRMGDINQGLSYLRQAFAMNPDPEIAAHLGEVLWVQGMKDEAKEIWQTALKNHPGNEALIGVMKKFMK”: the protein production entry is listed as “failed”.

With “MSLKVVIGYLALDDWEFESLFPTIEWKYLTHINASFARVKADGTLNINPVRKRIESVRETAHKHNVKILISLAKNSPGEFTTAINDPKARKELIQQIIAFTKEYKLDGFDIDYEEYDNWDKNFPSLLVFARGLYLAKEKNMLMTCAVNSRWLNYGTEWEQYFDYINLMSYDRGAFTDKPVQHASYDDFVKDLKYWNEQCRASKSKIVGGLPFYGYSWEESLQGAVDDVRGIRYSGILKHLGNEAADKDNIGKTYYNGRPTIANKCKFIKENDYAGVMIWQLFQDAHNDNYDLKLINVVGREMMEEGHHHHHH”, the protein production entry was “not failed”. As for “MSLKVVSVDTLCCDAGWRNYHFVKLTTDEGIVGWSEFDEGFGSPGVTAVIEQLGKRLVGASVMEHERFFAEAYCLTRPATGGVVSEGIGAIENALLDAKAKTLNVPCYELLGGKLRDRVPVYWSHCPTWRINHPKFFGPPVTDLDGVKRTAEEARERQFRAIKTNIFIHDDGPLHAWRPGFAVPFQPALNVDRKVLRNLRAHLEALRDGAGPDVEILLDLNFNAKPEGYLKILRELADFDLFWVEIDSYSPQGLAYVRNHSPHPISSCETLFGIREFKPFFDANAVDVAIVDTIWNGVWQSMKIAAFADAHDINVAPHNFYGHLCTMINANFAAAVPNLRIMETDIDRLAWEDELFTHAPEYQNGELIIPDRPGWGTDPVEEAILAHPPKVMGGLLQYKRSEGHHHHHH”, the entry is “not failed”; as for “MSLLEQLDKNIAASGGLIVSCQPVPGSPLDKPEIVAAMALAAEQAGAVAVRIEGIDNLRMTRSLVSVPIIGIIKRDLDESPVRITPFLDDVDALAQAGAAIIAVDGTARQRPVAVEALLARIHHHHLLAMADCSSVDDGLACQRLGADIIGTTMSGYTTPDTPEEPDLPLVKALHDAGCRVIAEGRYNSPALAAEAIRYGAWAVTVGSAITRLEHICGWYNDALKKAAS”, “not failed”.
